Read-outs that look alike come from different tables or passages of the source. Starred links: 1 amine or outer side, 2 acyl side, 3 side chain; linkers in the order of their positions; H or OH if unused. Non-standard residues stand in square brackets, D forms with d. Residues, ends and D or L forms follow the SMILES beside them. *: point of attachment. DOTAGA = O=C(O)CN1CCN(CC(=O)O)CCN(C(CCC(=O)*)C(=O)O)CCN(CC(=O)O)CC1; Benzoyl(4-SiFtBu2) = CC(C)(C)[Si](F)(c1ccc(C(=O)*)cc1)C(C)(C)C; DOTA = O=C(O)CN1CCN(CC(=O)O)CCN(CC(=O)*)CCN(CC(=O)O)CC1; d(γGlu) = O=C(O)[C@@H](CCC(=O)[*:2])N[*:1]; 1Nal = N[C@@H](Cc1cccc2ccccc12)C(=O)O; PEG5 = NCCOCCOCCOCCOCCOCCC(=O)O; NMeNle = CCCC[C@H](NC)C(=O)O; PEG4 = NCCOCCOCCOCCOCCC(=O)O; Nle = CCCC[C@H](N)C(=O)O; dDap = NC[C@@H](N)C(=O)O
What was measured:
CCK-2R = target: T1, CCK-2R (Rattus norvegicus, UniProt P30553); assay: Determination of IC50: CCK-2R affinity on AR4-2J cells, competition with [^177Lu]Lu-DOTA-PP-F11N; format: binding; conditions: AR4-2J cells
T1 construct: The CCK-2R expressing rat pancreatic tumor cells AR4-2J; host or cells: AR4-2J rat pancreatic tumor cells
T1 sequence (P30553 1-452): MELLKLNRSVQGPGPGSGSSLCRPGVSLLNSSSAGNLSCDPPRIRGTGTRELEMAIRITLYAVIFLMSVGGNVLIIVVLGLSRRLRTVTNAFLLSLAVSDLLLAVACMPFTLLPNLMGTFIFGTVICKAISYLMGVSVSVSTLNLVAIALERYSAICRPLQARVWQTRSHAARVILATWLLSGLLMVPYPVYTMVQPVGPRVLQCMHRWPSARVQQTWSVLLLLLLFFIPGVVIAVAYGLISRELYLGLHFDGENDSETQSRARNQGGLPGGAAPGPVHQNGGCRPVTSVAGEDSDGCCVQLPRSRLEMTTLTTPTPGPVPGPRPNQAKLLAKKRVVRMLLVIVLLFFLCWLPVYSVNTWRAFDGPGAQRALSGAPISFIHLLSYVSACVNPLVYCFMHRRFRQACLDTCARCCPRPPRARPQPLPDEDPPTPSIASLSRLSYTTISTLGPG
Outline: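 Competitive displacement of 0.3 pmol/well [177Lu]Lu-DOTA-PP-F11N by compounds (10^-10 to 10^-4 M) on AR4-2J cells in BSA-supplemented medium, 3 h at 37 °C. Free label was collected from medium plus PBS rinse, and cell-bound label was recovered with 1 M NaOH, both measured by γ-counter. Each IC50 was determined twice, in triplicate.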

[1] = n-Octanol-PBS distribution coefficient (logD7.4); format: physicochemical; conditions: for logD7.4 (n ≥ 5), ^177Lu-labeled: pH = 7.4, ^177Lu-labeled
Procedure: Approximately 1 MBq of the labeled tracer was dissolved in 1 mL of a 1/1 mixture (v/v) of phosphate buffered saline (PBS, pH = 7.4) and n-octanol in an Eppendorf tube (1.5 mL). After vigorous mixing of the suspension for 3 min at rt, the vial was centrifuged at 9,000 rpm for 5 min (Biofuge 15, Heraeus Sepatech, Osterode, Germany) and 200 µL aliquots of both layers were measured in a γ-counter. The experiment was repeated at least five times.

[2] = target: T2, Human serum albumin (HSA) (Homo sapiens, UniProt P02768); assay: Determination of HSA binding on a Chiralpak HSA column; format: in vitro ADME; conditions: for HSA binding [%]: Tab. 8, metal not stated (Fig. 18: ^natLu)
T2 construct: purchased Daicel, Tokyo, Japan H13H-2433
Procedure: Human serum albumin (HSA) binding of the CCK-2R-targeted compounds was determined as reported by Valko et al., using a Chiralpak HSA column (50 x 3 mm, 5 µm, H13H-2433, Daicel, Tokyo, Japan) at a constant flow rate of 0.5 mL/min at rt. Therefore, an aq. solution of NH4OAc (pH = 6.9, 50 mM) as mobile phase A and isopropanol as mobile phase B were freshly prepared. In order to calibrate the column prior to the experiments, the retention times of nine reference substances with a HSA binding in the range of 13 to 99% were determined using a gradient of 100% A (0 to 3 min), followed by 80% A (3 to 40 min). Furthermore, all substances tested, were dissolved in a mixture (1/1, v/v) of A and B reaching a final concentration of 0.5 mg/mL. The HSA binding of all rhCCK ligands tested, was determined using the same gradient as for the calibration probes. The non-linear regression of the calibration experiments and the CCK-2R ligands (Fig. 29) was established using the OriginPro 2016G software (Northampton, United States).

[3] = ^natLu-labeled, read-out: IC50 [nM] (n = 3), ^natLu-labeled
[4] = read-out: IC50 [nM] (n = 3), ^natGa-labeled, ^natGa-labeled
[5] = read-out: IC50 [nM] (n = 3), ^natLu-labeled, ^natLu-labeled

T2 sequence (P02768 25-609): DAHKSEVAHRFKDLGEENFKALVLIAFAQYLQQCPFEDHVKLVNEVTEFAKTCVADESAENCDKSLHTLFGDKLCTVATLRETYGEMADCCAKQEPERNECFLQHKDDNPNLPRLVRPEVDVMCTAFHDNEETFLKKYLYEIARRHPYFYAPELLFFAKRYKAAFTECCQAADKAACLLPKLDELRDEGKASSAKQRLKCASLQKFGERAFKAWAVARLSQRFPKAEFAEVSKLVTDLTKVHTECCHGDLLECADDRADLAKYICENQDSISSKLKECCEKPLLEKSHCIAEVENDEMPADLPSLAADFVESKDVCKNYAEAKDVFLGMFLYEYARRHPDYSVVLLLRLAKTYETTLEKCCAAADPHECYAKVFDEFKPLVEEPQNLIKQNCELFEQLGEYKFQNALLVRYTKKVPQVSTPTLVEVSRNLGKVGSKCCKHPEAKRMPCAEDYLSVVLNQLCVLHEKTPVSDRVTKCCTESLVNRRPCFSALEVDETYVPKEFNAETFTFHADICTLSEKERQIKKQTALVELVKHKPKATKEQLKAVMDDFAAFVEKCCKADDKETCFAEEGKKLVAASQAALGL

SMILES	IC50 (CCK-2R; [3])	logD7.4 (n ≥ 5), ^177Lu-labeled [1]	HSA binding [%] [2]	IC50 (CCK-2R; [5])	further results
CCCC[C@@H](C(=O)N[C@@H](CC(=O)O)C(=O)N[C@@H](Cc1cccc2ccccc12)C(N)=O)N(C)C(=O)[C@H](Cc1c[nH]c2ccccc12)NC(=O)CCOCCOCCOCCOCCNC(=O)[C@@H](CCC(=O)O)NC(=O)CN1CCN(CC(=O)O)CCN(CC(=O)O)CCN(CC(=O)O)CC1 [DOTA-CCK-66.2, DOTA-glu-(PEG)3-Trp-(N-Me)Nle-Asp-1-Nal-NH2] ({DOTA}-[dE][PEG4]W[NMeNle]D[1Nal]-NH2)	4.8 ± 0.9 nM	−2.69 ± 0.09			IC50 (CCK-2R; ^natCu-labeled, read-out: IC50 [nM] (n = 3), ^natCu-labeled): 5.8 ± 0.2 nM; IC50 (CCK-2R; ^natGa-labeled, read-out: IC50 [nM] (n = 3), ^natGa-labeled): 6 ± 1 nM; logD7.4 (n ≥ 5), ^64Cu-labeled ([1]; pH = 7.4, ^64Cu-labeled): −2.84 ± 0.08; logD7.4 (n ≥ 5), ^67Ga-labeled ([1]; pH = 7.4, ^67Ga-labeled): −2.55 ± 0.04; HSA binding [%], ^natCu-labeled [2]: 61.1%; HSA binding [%], ^natGa-labeled [2]: 54.2%; HSA binding [%], ^natLu-labeled [2]: 72.7%
CCCC[C@@H](C(=O)N[C@@H](CC(=O)O)C(=O)N[C@@H](Cc1cccc2ccccc12)C(N)=O)N(C)C(=O)[C@H](Cc1c[nH]c2ccccc12)NC(=O)CCOCCOCCOCCOCCNC(=O)CC[C@@H](NC(=O)CCOCCOCCOCCOCCOCCNC(=O)[C@@H](CNC(=O)c1ccc([Si](F)(C(C)(C)C)C(C)(C)C)cc1)NC(=O)CN1CCN(CC(=O)O)CCN(CC(=O)O)CCN(CC(=O)O)CC1)C(=O)O [DOTA-rhCCK-67, DOTA-dap(SiFA)-(PEG)4-γ-glu-(PEG)3-Trp-(N-Me)Nle-Asp-1-Nal-NH2] ({DOTA}-[dDap](Benzoyl(4-SiFtBu2))[PEG5][d(γGlu)][PEG4]W[NMeNle]D[1Nal]-NH2)	13 ± 1.1 nM	−1.05 ± 0.09	92.9%		IC50 (CCK-2R; [4]): 49.5 ± 3.7 nM
CCCC[C@@H](C(=O)N[C@@H](CC(=O)O)C(=O)N[C@@H](Cc1cccc2ccccc12)C(N)=O)N(C)C(=O)[C@H](Cc1c[nH]c2ccccc12)NC(=O)CCOCCOCCOCCOCCNC(=O)CC[C@@H](NC(=O)CCOCCOCCOCCOCCOCCNC(=O)CC[C@@H](NC(=O)[C@@H](CNC(=O)c1ccc([Si](F)(C(C)(C)C)C(C)(C)C)cc1)NC(=O)CN1CCN(CC(=O)O)CCN(CC(=O)O)CCN(CC(=O)O)CC1)C(=O)O)C(=O)O [DOTA-rhCCK-68, DOTA-dap(SiFA)-γ-glu-(PEG)4-γ-glu-(PEG)3-Trp-(N-Me)Nle-Asp-1-Nal-NH2]	15.4 ± 1.1 nM	−1.65 ± 0.09	91.2%		IC50 (CCK-2R; [4]): 36.9 ± 5.4 nM
CCCC[C@@H](C(=O)N[C@@H](CC(=O)O)C(=O)N[C@@H](Cc1cccc2ccccc12)C(N)=O)N(C)C(=O)[C@H](Cc1c[nH]c2ccccc12)NC(=O)CCOCCOCCOCCOCCNC(=O)CC[C@@H](NC(=O)CCOCCOCCOCCOCCOCCOCCOCCOCCOCCOCCOCCOCCNC(=O)CC[C@@H](NC(=O)[C@@H](CNC(=O)c1cc(C(=O)O)cc([Si](F)(C(C)(C)C)C(C)(C)C)c1)NC(=O)CN1CCN(CC(=O)O)CCN(CC(=O)O)CCN(CC(=O)O)CC1)C(=O)O)C(=O)O [DOTA-rhCCK-69, DOTA-dap(SiFA-ipa)-γ-glu-(PEG)11-γ-glu-(PEG)3-Trp-(N-Me)Nle-Asp-1-Nal-NH2]	43.1 ± 1.7 nM	−2.11 ± 0.09	84.7%		
CCCC[C@@H](C(=O)N[C@@H](CC(=O)O)C(=O)N[C@@H](Cc1cccc2ccccc12)C(N)=O)N(C)C(=O)[C@H](Cc1c[nH]c2ccccc12)NC(=O)CCOCCOCCOCCOCCNC(=O)CC[C@@H](NC(=O)CCOCCOCCOCCOCCOCCOCCOCCOCCNC(=O)CC[C@@H](NC(=O)[C@@H](CNC(=O)c1ccc([Si](F)(C(C)(C)C)C(C)(C)C)cc1)NC(=O)CN1CCN(CC(=O)O)CCN(CC(=O)O)CCN(CC(=O)O)CC1)C(=O)O)C(=O)O [DOTA-rhCCK-70, DOTA-dap(SiFA)-γ-glu-(PEG7-γ-glu-(PEG)3-Trp-(N-Me)Nle-Asp-1-Nal-NH2]	12.6 ± 2 nM	−1.67 ± 0.08	89.3%		
CCCC[C@H](NC(=O)[C@H](Cc1c[nH]c2ccccc12)NC(=O)CNC(=O)[C@H](Cc1ccc(O)cc1)NC(=O)[C@H](C)NC(=O)CC[C@@H](NC(=O)CC[C@@H](NC(=O)CC[C@@H](NC(=O)CC[C@@H](NC(=O)CC[C@@H](NC(=O)CC[C@@H](NC(=O)CC[C@@H](NC(=O)CC[C@@H](NC(=O)[C@@H](CNC(=O)c1ccc([Si](F)(C(C)(C)C)C(C)(C)C)cc1)NC(=O)CCC(C(=O)O)N1CCN(CC(=O)O)CCN(CC(=O)O)CCN(CC(=O)O)CC1)C(=O)O)C(=O)O)C(=O)O)C(=O)O)C(=O)O)C(=O)O)C(=O)O)C(=O)O)C(=O)N[C@@H](CC(=O)O)C(=O)N[C@@H](Cc1ccccc1)C(N)=O (stereo partly shown) [DOTAGA-MG-SiFA-23, DOTAGA-dap(SiFA)-(γ-glu)2-γ-F11N]		−2.10 ± 0.06		20.4 ± 2 nM	
CCCC[C@H](NC(=O)[C@H](Cc1c[nH]c2ccccc12)NC(=O)CNC(=O)[C@H](Cc1ccc(O)cc1)NC(=O)[C@H](C)NC(=O)CC[C@@H](NC(=O)CC[C@@H](NC(=O)CC[C@@H](NC(=O)CC[C@@H](NC(=O)[C@@H](CNC(=O)c1ccc([Si](F)(C(C)(C)C)C(C)(C)C)cc1)NC(=O)CC[C@@H](NC(=O)CC[C@@H](NC(=O)CC[C@@H](NC(=O)CCC(C(=O)O)N1CCN(CC(=O)O)CCN(CC(=O)O)CCN(CC(=O)O)CC1)C(=O)O)C(=O)O)C(=O)O)C(=O)O)C(=O)O)C(=O)O)C(=O)O)C(=O)N[C@@H](CC(=O)O)C(=O)N[C@@H](Cc1ccccc1)C(N)=O (stereo partly shown) [DOTAGA-MG-SiFA-24, DOTAGA-(γ-glu)2-[dap(SiFA)^2]γ-F11N] ({DOTAGA-d(γGlu)-d(γGlu)-d(γGlu)}-[dDap](Benzoyl(4-SiFtBu2))[d(γGlu)][d(γGlu)][d(γGlu)][d(γGlu)]AYGW[Nle]DF-NH2)		−2.72 ± 0.05		66.6 ± 4.4 nM	
CCCC[C@H](NC(=O)[C@H](Cc1c[nH]c2ccccc12)NC(=O)CNC(=O)[C@H](Cc1ccc(O)cc1)NC(=O)[C@H](C)NC(=O)CC[C@@H](NC(=O)CC[C@@H](NC(=O)CC[C@@H](NC(=O)CC[C@@H](NC(=O)[C@@H](CNC(=O)c1ccc([Si](F)(C(C)(C)C)C(C)(C)C)cc1)NC(=O)CC[C@@H](NC(=O)CC[C@@H](NC(=O)CC[C@@H](NC(=O)CC[C@@H](NC(=O)CCC(C(=O)O)N1CCN(CC(=O)O)CCN(CC(=O)O)CCN(CC(=O)O)CC1)C(=O)O)C(=O)O)C(=O)O)C(=O)O)C(=O)O)C(=O)O)C(=O)O)C(=O)O)C(=O)N[C@@H](CC(=O)O)C(=O)N[C@@H](Cc1ccccc1)C(N)=O (stereo partly shown) [DOTAGA-MG-SiFA-25, DOTAGA-(γ-glu)3-[dap(SiFA)^2]γ-F11N] ({DOTAGA-d(γGlu)-d(γGlu)-d(γGlu)-d(γGlu)}-[dDap](Benzoyl(4-SiFtBu2))[d(γGlu)][d(γGlu)][d(γGlu)][d(γGlu)]AYGW[Nle]DF-NH2)		−2.74 ± 0.04		62.9 ± 8.1 nM	
CCCC[C@H](NC(=O)[C@H](Cc1c[nH]c2ccccc12)NC(=O)CNC(=O)[C@H](Cc1ccc(O)cc1)NC(=O)[C@H](C)NC(=O)CC[C@@H](NC(=O)CC[C@@H](NC(=O)CC[C@@H](NC(=O)CC[C@@H](NC(=O)CC[C@@H](NC(=O)[C@@H](CNC(=O)c1ccc([Si](F)(C(C)(C)C)C(C)(C)C)cc1)NC(=O)CC[C@@H](NC(=O)CC[C@@H](NC(=O)CC[C@@H](NC(=O)CC[C@@H](NC(=O)CCC(C(=O)O)N1CCN(CC(=O)O)CCN(CC(=O)O)CCN(CC(=O)O)CC1)C(=O)O)C(=O)O)C(=O)O)C(=O)O)C(=O)O)C(=O)O)C(=O)O)C(=O)O)C(=O)O)C(=O)N[C@@H](CC(=O)O)C(=O)N[C@@H](Cc1ccccc1)C(N)=O (stereo partly shown) [DOTAGA-MG-SiFA-26, DOTAGA-(γ-glu)4-[dap(SiFA)^1]γ-F11N] ({DOTAGA-d(γGlu)-d(γGlu)-d(γGlu)-d(γGlu)}-[dDap](Benzoyl(4-SiFtBu2))[d(γGlu)][d(γGlu)][d(γGlu)][d(γGlu)][d(γGlu)]AYGW[Nle]DF-NH2)		−2.89 ± 0.04		37.1 ± 3.8 nM	

— patent publication EP4631959A2, “NOVEL MINIGASTRIN-DERIVED CHOLECYSTOKININ 2 RECEPTOR BINDING MOLECULES FOR IMAGING AND TARGETED RADIOTHERAPY” (priority 2022, dated 2024)
